Laboratory results published in PMC7588053, “Cholesterol oxidase from Rhodococcus erythropolis with high specificity toward β-cholestanol and pytosterols” (PLoS ONE, 2020).

Substrate: CC(C)CCC[C@@H](C)[C@H]1CC[C@H]2[C@@H]3CC=C4C[C@@H](O)CC[C@]4(C)[C@H]3CC[C@]12C
Assay: purified protein
Type: biochemical, Rhodococcus erythropolis
Conditions: O2 as co-substrate, 0-1 mM cholesterol, 50 mM sodium phosphate pH 7.0, 64 mM sodium cholate, 0.34% Triton X-100, 30°C

Protein	Km [µM]	Vmax [µmol/min/mg]	kcat [s⁻¹]	kcat/Km [M⁻¹ s⁻¹]
ChoRII (Rhodococcus erythropolis PR4) (protein, predicted mature enzyme, Tat signal peptide removed (Val-45 given, but 545 aa given would mean start at 44), C-terminal 6xHis kept, pET-21b(+), E. coli Rosetta (DE3) pLysS; precursor 588 aa, mature 59,369 Da; VAO family flavoenzyme (FAD)) VPWGSASTIAPPPGFPSDIPLSQQAYANWSREIMLESVWTATARHSDDVVTLANWAFDNGYTVRAKGTMHGWSPLTVVPGAPSDRVLLVDTMANLNSVVVQHGTPATVTAGAGASIEAILTALEREGLGWANAPAIGELSIAGALAIGAHGATYPAVGETITPGQSYGSLSNLITEITVVAWDEGRNRYGLKTFHRSDDEITAFLTHLGRTFVTSVTLQAGENYRLRCRSFTDIPWQELFAAPGSPGRTYESFVEKSGRVEAIWFPFTQTPWLKVWTPTPVKPPESREVSGPYNYFFSDAIPEEVTTPLGMVAQGLQAATPLFGASQFGAVAAGLALTDTDDLWGWSKDVLFYLRHTTLRVVAGGGAVITKRSNIGRVVHEMTSWLNERMTHYASLGQYPVNMPFEVRLCGVDDSGEVLVDSAGVPDLSAVRPRADRQDWDTAIWMNVVSIPGTAGLPAFLREMERWMVANYSGDYATFRPEWSKGWAFTDQAAYQDDEFLTSTVPATFRAGGDGNWDFALATLDEHDPHRVFSNTFIDRVLPPS	22.1 ± 0.3	0.57	0.61 ± 0.11	30000 ± 10000
ChoRI (Rhodococcus erythropolis PR4) (protein, predicted mature enzyme, Tat signal peptide removed (from Val-37), C-terminal 6xHis kept, pET-21b(+), E. coli Rosetta (DE3) pLysS; precursor 587 aa, mature 551 aa, 59,590 Da; VAO family flavoenzyme (FAD)) VPAGSSGSAGGPVSTLTPPPAFPEGIALYQQAYQNWSKEIMLDAIWTCSPKTPEDVVRLANWGHANGYTIRPRGAMHGWTPLTIVNGAPVDKVILADTTVHLTGVSVNAGGSPATVTAGPGATLDAITTALQAQGLGFANLPAPGVLTIAGCLAVDAHGAALPAEGEAHVPGQTFGSLSNLVTSLTAVVWNGSEYALETYARSDAAIKPLLTHLGRTFLTSVTLQAAPNYRMRCVSHTDIGWQELFGARGASGRTFEKFVRENGRAEAIWYPFTERPWMKVWSLAPTKPPFSREVTGPYNYIFSDNLPEPVTDMIGQINAGNPGIAPAFGQIMYATTVAGLAATFSNDLWGWSKDVQFYIRATTLRLTEGGGAVITSRANIGQVIHDFTQWFNGRMEYYRSIGQFPLNGPVEIRCCGLDQPSDVEVDSAGAPTISAMRPRPDHPEWDTAIWLNVLGVPGTPGMFAFYREMEQWMRNHYNNNDATFRPEWSKGWAFGPDKPYTDAPIITQGLPQTYRDGVPSSDNWDTANAAYNALDPHKVFSNTFLDQLLP	22.6 ± 0.5	6.4	6.8 ± 0.3	300000 ± 10000
